{"source": "the supplement of paper PMC10899765", "note": "“And” between values parts separate entries of the source, which are not always exact repeats. Identical values can stand only once.", "data": [{"system": "MCF10A", "assay": "one-nucleolus phenotype percent effect (relative to siNT 0% and siNOL11 100%); higher = more cells with one nucleolus (ribosome biogenesis inhibition)", "details": "20 nM; 72 h", "description": "(§1)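 After 72 h, cells were fixed and stained with Hoechst and anti-fibrillarin, and nucleoli per nucleus were counted with CellProfiler. Values are plate-adjusted percent effect for the one-nucleolus and 5+ nucleoli phenotypes, normalised to siNT (0%) and to the positive controls siNOL11 or siKIF11 (100%), as the mean of biological triplicates. Percent viability is the nuclei count relative to siNT.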", "values": [{"sequence": "CAGGGCUCAGGGAUUGGAUGGAG [hsa-miR-5088]", "one-nucleolus phenotype percent effect": "-7.65%"}, {"sequence": "UUCGCCACUUCCCUCCCUGCAG [hsa-miR-6788-3p]", "one-nucleolus phenotype percent effect": "-13.9%"}, {"sequence": "AGGAGGUGGUACUAGGGGCCAGC [hsa-miR-6851-5p]", "one-nucleolus phenotype percent effect": "31.8%"}, {"sequence": "CUCAGUGACUCAUGUGC [hsa-miR-4276]", "one-nucleolus phenotype percent effect": "17.5%"}, {"sequence": "UCCCUGAGACCCUAACUUGUGA [hsa-miR-125b-5p]", "one-nucleolus phenotype percent effect": "-11.8%"}, {"sequence": "GGAGAAAUUAUCCUUGGUGUGU [hsa-miR-539-5p]", "one-nucleolus phenotype percent effect": "-14.8%"}, {"sequence": "CGAGGGGUAGAAGAGCACAGGGG [hsa-miR-6738-5p]", "one-nucleolus phenotype percent effect": "-8.33%"}, {"sequence": "CUCCAGAGGGAAGUACUUUCU [hsa-miR-520a-5p]", "one-nucleolus phenotype percent effect": "23.8%"}, {"sequence": "UCUGUAGCCUGGGAGCAAUGGGGU [hsa-miR-3137]", "one-nucleolus phenotype percent effect": "24%"}, {"sequence": "UGGGGCUCAGCGAGUUU [hsa-miR-4283]", "one-nucleolus phenotype percent effect": "24.3%"}, {"sequence": "CUCAAGUAGUCUGACCAGGGGA [hsa-miR-4465]", "one-nucleolus phenotype percent effect": "-5.88%"}, {"sequence": "UGGCAGGGAGGCUGGGAGGGG [hsa-miR-1207-5p]", "one-nucleolus phenotype percent effect": "24.5%"}, {"sequence": "CACCCGGCUGUGUGCACAUGUGC [hsa-miR-941]", "one-nucleolus phenotype percent effect": "-3.88%"}, {"sequence": "AUCACAUUGCCAGGGAUUUCC [hsa-miR-23a-3p]", "one-nucleolus phenotype percent effect": "-9.26%"}, {"sequence": "CGGCCCGGGCUGCUGCUGUUCCU [hsa-miR-1538]", "one-nucleolus phenotype percent effect": "-27.8%"}, {"sequence": "GCAUUGUGCAGGGCUAUCA [hsa-miR-4289]", "one-nucleolus phenotype percent effect": "-8.06%"}, {"sequence": "AUGGCAUCGUCCCCUGGUGGCU [hsa-miR-4642]", "one-nucleolus phenotype percent effect": "16.6%"}, {"sequence": "CCAGAGGUGGGGACUGAG [hsa-miR-4257]", "one-nucleolus phenotype percent effect": "22.3%"}, {"sequence": "UGCAUCACAGCCUUUGGCCCUAG [hsa-miR-7112-3p]", "one-nucleolus phenotype percent effect": "-28%"}, {"sequence": "CGUGUCUUCUGGCUUGAU [hsa-miR-4711-3p]", "one-nucleolus phenotype percent effect": "59.2%"}, {"sequence": "UUGUGGGGUUGGAGAGCUGGCUG [hsa-miR-6796-5p]", "one-nucleolus phenotype percent effect": "45.3%"}, {"sequence": "AUACACAUACACGCAACACACAU [hsa-miR-466]", "one-nucleolus phenotype percent effect": "-17.2%"}, {"sequence": "ACGCCCUUCCCCCCCUUCUUCA [hsa-miR-1249]", "one-nucleolus phenotype percent effect": "-13.3%"}, {"sequence": "GAGACAGGUUCAUGCUGCUA [hsa-miR-4524b-3p]", "one-nucleolus phenotype percent effect": "37.3%"}, {"sequence": "GUCCCUCUCCAAAUGUGUCUUG [hsa-miR-642a-5p]", "one-nucleolus phenotype percent effect": "-27.9%"}, {"sequence": "UUGCCACACUGCAACACCUUACA [hsa-miR-3064-3p]", "one-nucleolus phenotype percent effect": "8.14%"}, {"sequence": "UAGUGGUCAGAGGGCUUAUGA [hsa-miR-6718-5p]", "one-nucleolus phenotype percent effect": "39.8%"}, {"sequence": "AGGGACUUUCAGGGGCAGCUGU [hsa-miR-365b-5p]", "one-nucleolus phenotype percent effect": "4.45%"}, {"sequence": "AGAAGUGGCUAAUAAUAUUGA [hsa-miR-4795-5p]", "one-nucleolus phenotype percent effect": "-14.7%"}, {"sequence": "UUAUCAGAAUCUCCAGGGGUAC [hsa-miR-361-5p]", "one-nucleolus phenotype percent effect": "-9.14%"}, {"sequence": "UGGAUAUGAUGACUGAAA [hsa-miR-4791]", "one-nucleolus phenotype percent effect": "-7.67%"}, {"sequence": "CUGGGCUCGGGACGCGCGGCU [hsa-miR-4674]", "one-nucleolus phenotype percent effect": "18.5%"}, {"sequence": "GACCUGGACAUGUUUGUGCCCAGU [hsa-miR-619]", "one-nucleolus phenotype percent effect": "-30.8%"}, {"sequence": "CAGGGCCAGGCACAGAGUAAG [hsa-miR-6895-5p]", "one-nucleolus phenotype percent effect": "13.8%"}, {"sequence": "UGAGACCUCUGGGUUCUGAGCU [hsa-miR-769-5p]", "one-nucleolus phenotype percent effect": "7.1%"}, {"sequence": "UCCAUUACACUACCCUGCCUCU [hsa-miR-885-5p]", "one-nucleolus phenotype percent effect": "-5.62%"}, {"sequence": "ACAAAGUACAGCAUUAGCCUUAG [hsa-miR-3973]", "one-nucleolus phenotype percent effect": "-6.17%"}, {"sequence": "AGCUACAUCUGGCUACUGGGU [hsa-miR-222-3p]", "one-nucleolus phenotype percent effect": "-5.3%"}, {"sequence": "UAUGGCUUUUCAUUCCUAUGUGA [hsa-miR-135b-5p]", "one-nucleolus phenotype percent effect": "21.8%"}, {"sequence": "UGUCUUGCAGGCCGUCAUGCA [hsa-miR-431-5p]", "one-nucleolus phenotype percent effect": "53.9%"}, {"sequence": "UACUCUGGAGAGUGACAAUCAUG [hsa-miR-514a-5p]", "one-nucleolus phenotype percent effect": "-13.3% and -15.4%"}, {"sequence": "CUAGACUGAAGCUCCUUGAGG [hsa-miR-151a-3p]", "one-nucleolus phenotype percent effect": "-1.52%"}, {"sequence": "UGGCUCAGUUCAGCAGGAACAG [hsa-miR-24-3p]", "one-nucleolus phenotype percent effect": "2.42%"}, {"sequence": "UGAGCGCCUCGACGACAGAGCCG [hsa-miR-339-3p]", "one-nucleolus phenotype percent effect": "-25.2%"}, {"sequence": "CCAGAGCAGCCUGCGGUAACAGU [hsa-miR-6501-3p]", "one-nucleolus phenotype percent effect": "1.17%"}, {"sequence": "UAAAACUGCAGUUAUUUUUGC [hsa-miR-548ar-3p]", "one-nucleolus phenotype percent effect": "-24.2%"}, {"sequence": "AAAACGGUGAGAUUUUGUUUU [hsa-miR-553]", "one-nucleolus phenotype percent effect": "-24.2%"}, {"sequence": "UGACUGCCUCACUGACCACUU [hsa-miR-5002-3p]", "one-nucleolus phenotype percent effect": "-1.84%"}, {"sequence": "UUGCAUAUGUAGGAUGUCCCAU [hsa-miR-448]", "one-nucleolus phenotype percent effect": "-2.74%"}, {"sequence": "AUAGCAGCAUAAGCCUGUCUC [hsa-miR-4524b-5p]", "one-nucleolus phenotype percent effect": "-0.0215%"}, {"sequence": "GGUGGUUGAGGCUGCAGUAAGU [hsa-miR-1273g-5p]", "one-nucleolus phenotype percent effect": "-13.4%"}, {"sequence": "AUCACAUUGCCAGUGAUUACCC [hsa-miR-23c]", "one-nucleolus phenotype percent effect": "2.08%"}, {"sequence": "AAUCAUUCACGGACAACACUU [hsa-miR-382-3p]", "one-nucleolus phenotype percent effect": "-25.4%"}, {"sequence": "AAAUAUGAUGAAACUCACAGCUGAG [hsa-miR-4517]", "one-nucleolus phenotype percent effect": "0.779%"}, {"sequence": "AUGGUACCCUGGCAUACUGAGU [hsa-miR-1263]", "one-nucleolus phenotype percent effect": "49.6%"}, {"sequence": "GACUAUAGAACUUUCCCCCUCA [hsa-miR-625-3p]", "one-nucleolus phenotype percent effect": "-5.42%"}, {"sequence": "CGUCAACACUUGCUGGUUUCCU [hsa-miR-505-3p]", "one-nucleolus phenotype percent effect": "22.4%"}, {"sequence": "AGAAUUGCGUUUGGACAAUCAGU [hsa-miR-2964a-3p]", "one-nucleolus phenotype percent effect": "34.8%"}, {"sequence": "AACUGGAUCAAUUAUAGGAGUG [hsa-miR-1243]", "one-nucleolus phenotype percent effect": "-29.3%"}]}, {"system": "MCF10A", "assay": "5+ nucleoli phenotype percent effect (relative to siNT 0% and siKIF11 100%); higher = more cells with five or more nucleoli", "details": "20 nM; 72 h", "description": "as §1", "units": {"5+ nucleoli phenotype percent effect": "%"}, "values": [{"sequence": "CAGGGCUCAGGGAUUGGAUGGAG [hsa-miR-5088]", "5+ nucleoli phenotype percent effect": 20.4}, {"sequence": "UUCGCCACUUCCCUCCCUGCAG [hsa-miR-6788-3p]", "5+ nucleoli phenotype percent effect": 18}, {"sequence": "AGGAGGUGGUACUAGGGGCCAGC [hsa-miR-6851-5p]", "5+ nucleoli phenotype percent effect": -20.3}, {"sequence": "CUCAGUGACUCAUGUGC [hsa-miR-4276]", "5+ nucleoli phenotype percent effect": -21.3}, {"sequence": "UCCCUGAGACCCUAACUUGUGA [hsa-miR-125b-5p]", "5+ nucleoli phenotype percent effect": 17.3}, {"sequence": "GGAGAAAUUAUCCUUGGUGUGU [hsa-miR-539-5p]", "5+ nucleoli phenotype percent effect": 17.9}, {"sequence": "CGAGGGGUAGAAGAGCACAGGGG [hsa-miR-6738-5p]", "5+ nucleoli phenotype percent effect": 26.9}, {"sequence": "CUCCAGAGGGAAGUACUUUCU [hsa-miR-520a-5p]", "5+ nucleoli phenotype percent effect": -28.3}, {"sequence": "UCUGUAGCCUGGGAGCAAUGGGGU [hsa-miR-3137]", "5+ nucleoli phenotype percent effect": -20.3}, {"sequence": "UGGGGCUCAGCGAGUUU [hsa-miR-4283]", "5+ nucleoli phenotype percent effect": -10.7}, {"sequence": "CUCAAGUAGUCUGACCAGGGGA [hsa-miR-4465]", "5+ nucleoli phenotype percent effect": 21.6}, {"sequence": "UGGCAGGGAGGCUGGGAGGGG [hsa-miR-1207-5p]", "5+ nucleoli phenotype percent effect": -30.5}, {"sequence": "CACCCGGCUGUGUGCACAUGUGC [hsa-miR-941]", "5+ nucleoli phenotype percent effect": -23.6}, {"sequence": "AUCACAUUGCCAGGGAUUUCC [hsa-miR-23a-3p]", "5+ nucleoli phenotype percent effect": -6.74}, {"sequence": "CGGCCCGGGCUGCUGCUGUUCCU [hsa-miR-1538]", "5+ nucleoli phenotype percent effect": 45}, {"sequence": "GCAUUGUGCAGGGCUAUCA [hsa-miR-4289]", "5+ nucleoli phenotype percent effect": 7.06}, {"sequence": "AUGGCAUCGUCCCCUGGUGGCU [hsa-miR-4642]", "5+ nucleoli phenotype percent effect": -4.74}, {"sequence": "CCAGAGGUGGGGACUGAG [hsa-miR-4257]", "5+ nucleoli phenotype percent effect": 1.69}, {"sequence": "UGCAUCACAGCCUUUGGCCCUAG [hsa-miR-7112-3p]", "5+ nucleoli phenotype percent effect": 45.4}, {"sequence": "CGUGUCUUCUGGCUUGAU [hsa-miR-4711-3p]", "5+ nucleoli phenotype percent effect": -36.9}, {"sequence": "UUGUGGGGUUGGAGAGCUGGCUG [hsa-miR-6796-5p]", "5+ nucleoli phenotype percent effect": -31.5}, {"sequence": "AUACACAUACACGCAACACACAU [hsa-miR-466]", "5+ nucleoli phenotype percent effect": -1.51}, {"sequence": "ACGCCCUUCCCCCCCUUCUUCA [hsa-miR-1249]", "5+ nucleoli phenotype percent effect": 29.3}, {"sequence": "GAGACAGGUUCAUGCUGCUA [hsa-miR-4524b-3p]", "5+ nucleoli phenotype percent effect": -32.4}, {"sequence": "GUCCCUCUCCAAAUGUGUCUUG [hsa-miR-642a-5p]", "5+ nucleoli phenotype percent effect": 55.6}, {"sequence": "UUGCCACACUGCAACACCUUACA [hsa-miR-3064-3p]", "5+ nucleoli phenotype percent effect": -31.2}, {"sequence": "UAGUGGUCAGAGGGCUUAUGA [hsa-miR-6718-5p]", "5+ nucleoli phenotype percent effect": -44.7}, {"sequence": "AGGGACUUUCAGGGGCAGCUGU [hsa-miR-365b-5p]", "5+ nucleoli phenotype percent effect": 19.9}, {"sequence": "AGAAGUGGCUAAUAAUAUUGA [hsa-miR-4795-5p]", "5+ nucleoli phenotype percent effect": -2.9}]}]}
